Measurements: patent US20240343803A1 (SHANDONG SIMCERE BIOPHARMACEUTICAL, published 2024)
One block for each binder: values may come before it.

Assays:
[1] = target: T1, cynomolgus monkey PVRIG (Novoprotein, Cat NO. C09B) (cynomolgus monkey, UniProt A0A2K5WVV8 41-171); experiment: ELISA, coated cynomolgus monkey PVRIG
T1 construct: bought reagent; also called cynomolgus monkey PVRIG recombinant protein
T1 sequence: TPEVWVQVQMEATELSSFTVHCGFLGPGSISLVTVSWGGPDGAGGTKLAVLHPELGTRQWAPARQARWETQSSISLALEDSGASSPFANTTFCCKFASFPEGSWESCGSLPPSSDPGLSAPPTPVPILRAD

[2] = target: T2, human TIGIT ECD-mFc (fusion protein of extracellular domain of human TIGIT and mouse IgG2a Fc fragment) (human); experiment: competition cell ELISA; blocked: TIGIT ECD-mFc binding to CHO-K1 CD155 cells
T2 chain: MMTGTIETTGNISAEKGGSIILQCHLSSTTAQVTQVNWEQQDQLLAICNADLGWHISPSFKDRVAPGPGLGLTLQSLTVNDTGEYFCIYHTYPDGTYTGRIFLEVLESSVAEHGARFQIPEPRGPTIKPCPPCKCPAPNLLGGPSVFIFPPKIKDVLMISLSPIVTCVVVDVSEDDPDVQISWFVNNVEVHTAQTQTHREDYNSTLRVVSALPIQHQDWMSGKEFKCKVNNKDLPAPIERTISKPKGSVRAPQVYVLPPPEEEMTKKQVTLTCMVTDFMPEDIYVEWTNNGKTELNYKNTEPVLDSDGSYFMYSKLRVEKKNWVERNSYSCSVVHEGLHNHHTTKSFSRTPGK
Protocol: After discarding the culture supernatant, the cells were fixed with a cell fixation solution (Beyotime, P0098), 50 μL/well, at room temperature for 1 hour. After washing once with 0.05% Tween 20-PBS on the Microplate Washer, the plate was added with 5% skim milk powder-PBS, 250 μL/well, and incubated at 37° C. for 2-4 hours. The plate was then washed 3 times with 0.05% Tween 20-PBS on the Microplate Washer. The sample were mixed with human TIGIT ECD-mFc (working concentration: 100 ng/mL) and incubated for 0.5 hour. The mixed solution of antigen and antibody was added to the cell plate (50 μL/well). The cells were incubated with the mixture at 37° C. for 1.5-2 hours and then washed with 0.05% Tween 20-PBS for 3 times on the Microplate Washer. […] After washing 3 times with 0.05% Tween 20-PBS on the Microplate Washer, the plate was added with TMB chromogenic solution (KPL, 52-00-03), 50 μL/well, and incubated at 37° C. for 10 minutes. 1M HCL, 50 µL/well, was then added into the plate to terminate the reaction, and the OD450 nm was read by a microplate reader (Biotek, Powerwave HT).

[3] = target: T3, full-length human TIGIT on CHO-K1 cells (CHO-K1 human TIGIT) (human, UniProt Q495A1 22-244); experiment: competition FACS; blocked: Bio-CD155-His binding to CHO-K1 human TIGIT cells
T3 construct: NCBI XP_024309156.1; entry includes the signal peptide; also called high expression strain 1D2; medium expression strain 2D10
T3 sequence: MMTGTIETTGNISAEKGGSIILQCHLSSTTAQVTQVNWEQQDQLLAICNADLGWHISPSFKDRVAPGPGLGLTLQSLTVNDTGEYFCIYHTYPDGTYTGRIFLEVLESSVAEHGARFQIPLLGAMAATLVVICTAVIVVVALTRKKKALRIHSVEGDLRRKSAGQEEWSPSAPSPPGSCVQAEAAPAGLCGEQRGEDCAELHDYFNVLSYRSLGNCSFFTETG
Protocol: The collected cells were washed once with PBS (Hyclone, SH30256), resuspended to 2×10⁵/40 μL with 1% BSA-PBS. The antibodies were diluted to 210 nM with 1% BSA-PBS (diluted by 3-fold serial dilution for 12 concentration points). […] The 40 μL cells were then mixed with 40 μL diluted antibodies and 40 μL diluted Bio-CD155-His, and then incubated at 4° C. for 60 minutes. The cells were washed twice with PBS, resuspended with APC labeled streptavidin (dilution ratio 1:1700, Biolegend, 405243), 100 μL/well, and incubated at 4° C. for 40 minutes. The cell samples were washed twice with PBS, resuspended with 1% BSA-PBS (100 μL/well) and then analyzed by flow cytometry (BD, Canto II).

EC50 (read off the curve) [1]: ~0.06 nM
B1: SRF813-hIgG1 (antibody, V domains shown)
VH: QVQLVQSGAEVKKPGSSVKVSCKASGGTFSSAAISWVRQAPGQGLEWMGNIIPIVGIANYAQKFQGRVTITADESTSTAYMELSSLRSEDTAVYYCARDTGRGYTRHFWFDPWGQGTLVTVSS
VL: DIQMTQSPSSLSASVGDRVTITCRASQSISSYLNWYQQKPGKAPKLLIYAASSLQSGVPSRFSGSGSGTDFTLTISSLQPEDFATYYCQQSDILYTFGGGTKVEIK
notes: human IgG1 format by its name

IC50 (read off the curve) [2]: ~0.6 nM
IC50 (read off the curve) [3]: ~0.3 nM
B2: RG6058-hIgG1 (antibody, V domains shown)
VH: EVQLQQSGPGLVKPSQTLSLTCAISGDSVSSNSAAWNWIRQSPSRGLEWLGKTYYRFKWYSDYAVSVKGRITINPDTSKNQFSLQLNSVTPEDTAVFYCTRESTTYDLLAGPFDYWGQGTLVTVSS
VL: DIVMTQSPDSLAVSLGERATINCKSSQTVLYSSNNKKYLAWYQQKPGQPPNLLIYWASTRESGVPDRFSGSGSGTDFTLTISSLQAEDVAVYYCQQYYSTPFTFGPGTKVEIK
notes: human IgG1 format by its name; also called Roche RG6058; control antibody RG6058
